Test results reported in patent US20180237511A1 (Sanofi, published 2018).
Values belong to the binder of their own block, whether it stands above or below them.

How the values were obtained:
[1] = target: T1, human beta-dystroglycan extracellular domain (soluble) (human, UniProt Q14118 654-749); assay: SPR (Biacore) kinetics; mAb immobilized, hBeta-DG in flow
T1 construct: extracellular domain; The expression construct of soluble human beta-DG is not described (only the mouse one); One entry is used for all soluble human beta-DG, also for the crystal structure; also called hBeta-DG; hbeta-DG
T1 sequence (looked up): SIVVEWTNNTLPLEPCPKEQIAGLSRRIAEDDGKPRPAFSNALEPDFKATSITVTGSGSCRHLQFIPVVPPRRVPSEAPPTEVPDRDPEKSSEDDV

[2] = target: T2, murine beta-dystroglycan extracellular domain (mbeta-DG ECD), HPC4 tagged (mouse, UniProt Q62165 652-746); assay: SPR (Biacore) kinetics; mAb immobilized, mBeta-DG in flow
T2 construct: range 652-746; Made in E. coli as MBP fusion; MBP cleaved off with TEV protease; also called mbeta-DG-HPC4; murine beta-DG; not shown: C-terminal HPC4 tag
T2 sequence (looked up): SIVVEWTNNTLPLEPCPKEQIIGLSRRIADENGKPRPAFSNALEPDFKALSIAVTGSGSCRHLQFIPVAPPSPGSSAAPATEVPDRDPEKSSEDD

[3] = target: T3, Fabrazyme (agalsidase beta, Genzyme) (UniProt P06280 32-429); assay: dot blot: protein dotted on nitrocellulose (250 to .016 ng), probed with AS19
T3 construct: Negative control protein on the dot blots
T3 sequence (looked up): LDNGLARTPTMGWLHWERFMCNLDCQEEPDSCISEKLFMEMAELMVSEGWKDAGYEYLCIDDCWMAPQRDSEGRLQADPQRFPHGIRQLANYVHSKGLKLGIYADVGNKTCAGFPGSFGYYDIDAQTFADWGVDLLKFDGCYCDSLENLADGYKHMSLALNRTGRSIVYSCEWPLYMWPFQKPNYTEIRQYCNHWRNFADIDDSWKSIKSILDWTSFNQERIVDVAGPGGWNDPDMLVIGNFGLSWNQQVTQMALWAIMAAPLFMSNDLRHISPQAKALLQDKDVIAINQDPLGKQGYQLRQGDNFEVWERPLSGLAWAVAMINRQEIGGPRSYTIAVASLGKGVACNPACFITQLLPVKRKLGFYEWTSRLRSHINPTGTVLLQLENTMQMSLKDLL

[4] = target: T2, murine beta-dystroglycan extracellular …; assay: SPR (Biacore) kinetics, antibody as ligand on the chip, sample mBDg in flow, fit 1:1 Binding
[5] = target: T1, human beta-dystroglycan extracellular …; assay: dual binding sandwich ELISA on coated human beta-DG, read out through LG4/5-mFc (5 ug/mL)
Description: A dual binding sandwich ELISA was performed by coating Thermo Nunc Immobilized SA 96 well plates with either 2 ug/mL of biotinylated N′Avi-HPC4-human LG4/5 or biotinylated human-beta DG-HPC4-Avi-C′. After overnight incubation at 4° C., the plates were blocked with PBS+1% BSA+0.1% Tween for 1 hour at room temperature. After washing (BioTek ELx405 Select CW) with PBS, the trivalent or parental antibodies were added to the plate started at 8 ug/mL and a 2-fold dilution was performed across the plate, antibody was incubated for 1 hour at room temperature. After washing, the second antigen of beta-DG-mFc (FIG. 1A) or LG4/5-mFc was added at 5 ug/mL. Following the second antigen, a secondary antibody of donkey anti-mouse (Jackson ImmunoResearch) at a 1:2,000 dilution was added for 30 minutes. ABTS was resuspended in ABTS buffer (Roche) and added to the wells for detection. Resulting signal was read with the Perkin Elmer EnVision Multimode Plate Reader at 405 nm.
To show binding of the triAbs to both antigens, a dual binding sandwich ELISA was performed as described above using 2 ug/mL of biotinylated N′Avi-HPC4-human LG4/5 (FIG. 14A) or biotinylated human-beta DG-HPC4-Avi-C′ (FIG. 14B).

[6] = target: T1, human beta-dystroglycan extracellular …; assay: SPR, antibody on Protein G chip, beta-DG in flow, 1:1 model (table title says laminin-2; paragraph 445 says human beta-DG)
Description: Data was evaluated with a 1:1 binding model using the BIAevaluation software.
SPR was used as described above to analyze the kinetics of triAb binding to laminin-2 (Table N) or beta-DG (Table O).

- Kd [1]: 2.06 nM
- Kd [2]: 3.38 nM
- binding result [3]: no binding (tested: 250 ng)
- koff [4]: 0.000667 s⁻¹
- kon [4]: 110000 M⁻¹ s⁻¹
B1: anti-beta-DG antibody derived from hybridoma clone AS19 (antibody, V domains shown)
VH: QVQLQQSGPELVKPGASVKMSCKASGFTFTDSVISWVKQRTGQGLEWIGEIYPGSGSIYYNEKFKGKATLTADKSSNTAYMQLRSLTSEDSAVYFCAMRRSYWGQGTLVTVSA
VL: DVLMTQTPLSLPVSLGDQASISCRSSQSIVHSNGNTYLEWYLQKPGQSPKLLIYKVSNRFSGVPDRFSGSGSGTDFTLKISRVEAEDLGVYYCFQGSHVPLTFGAGTKLELK
notes: Hybridoma monoclonal antibody (detected with anti-mouse IgG)

- EC50 (read off the curve) [5]: ~0.1 µg/mL
- Kd [6]: 2.08 nM
- koff [6]: 0.00326 s⁻¹
- kon [6]: 1.57e+06 M⁻¹ s⁻¹
B2: triAb 3407 (bispecific antibody)
light 1: EIVLTQSPDFLSVTPKEKVTLTCRASQSISNNLHWYQQKSDQSPKLLIKYASQSISGIPSRFSGSGSGTDFTLTINSVEAEDAATYFCQQSKSWPRTFGGGTKLEIKDKTHTEIVLTQSPDFLSVTPKEKVTLTCRASQSISNNLHWYQQKSDQSPKLLIKYASQSISGIPSRFSGSGSGTDFTLTINSVEAEDAATYFCQQSKSWPRTFGGGTKLEIKDKTHTRTVAAPSVFIFPPSDEQLKSGTASVVCLLNNFYPREAKVQWKVDNALQSGNSQESVTEQDSKDSTYSLSSTLTLSKADYEKHKVYACEVTHQGLSSPVTKSFNRGEC
heavy 1: EVQLVESGGGLVKPGGSLRLSCAASGFTFSSYTMSWVRQAPGKGLEWVASISSSGSNTYYPDSVKGRFTISRDNAKNNLYLQMNSLRAEDTALYYCARFDYGSSLDSWGQGTLLTVSSDKTHTEVQLVESGGGLVKPGGSLRLSCAASGFTFSSYTMSWVRQAPGKGLEWVASISSSGSNTYYPDSVKGRFTISRDNAKNNLYLQMNSLRAEDTALYYCARFDYGSSLDSWGQGTLLTVSSDKTHTASTKGPSVFPLAPSSKSTSGGTAALGCLVKDYFPEPVTVSWNSGALTSGVHTFPAVLQSSGLYSLSSVVTVPSSSLGTQTYICNVNHKPSNTKVDKKVEPKSCDKTHTCPPCPAPELLGGPSVFLFPPKPKDTLYITREPEVTCVVVDVSHEDPEVKFNWYVDGVEVHNAKTKPREEQYNNASRVVSVLTVLHQDWLNGKEYKCKVSNKALPAPIEKTISKAKGQPREPQVYTLPPCRDELTKNQVSLWCLVKGFYPSDIAVEWESNGQPENNYKTTPPVLDSDGSFFLYSKLTVDKSRWQQGNVFSCSVMHEALHNHYTQKSLSLSPG
heavy 2: QVQLVQSGAEVVKPGSSVKVSCEASGFTFTDSVITWVRQRPGQGLEWIGEIYPGSGNFYYNEKFQGRVTITADKSTSTAYMELSSLRSEDTAVYFCAMRRSSWGQGTLVTVSSASTKGPSVFPLAPSSKSTSGGTAALGCLVKDYFPEPVTVSWNSGALTSGVHTFPAVLQSSGLYSLSSVVTVPSSSLGTQTYICNVNHKPSNTKVDKKVEPKSCDKTHTCPPCPAPELLGGPSVFLFPPKPKDTLYITREPEVTCVVVDVSHEDPEVKFNWYVDGVEVHNAKTKPREEQYNNASRVVSVLTVLHQDWLNGKEYKCKVSNKALPAPIEKTISKAKGQPREPQVCTLPPSRDELTKNQVSLSCAVKGFYPSDIAVEWESNGQPENNYKTTPPVLDSDGSFFLVSKLTVDKSRWQQGNVFSCSVMHEALHNRFTQKSLSLSPG
light 2: DVVMTQTPLSLSVTPGQPASISCKSSQTIVHSNSKTYLEWYLQKPGQSPQLLIYKVSSRFSGVPDRFSGSGSGTDFTLKISRVEAEDVGVYYCFQGSHVPLTFGQGTKLEIKRTVAAPSVFIFPPSDEQLKSGTASVVCLLNNFYPREAKVQWKVDNALQSGNSQESVTEQDSKDSTYSLSSTLTLSKADYEKHKVYACEVTHQGLSSPVTKSFNRGEC
notes: knob-in-hole, NNAS, YTE and RF variants
